How the values were obtained:
Assay in all cases: co-expression in E. coli (pETDuet-1, N-6 His on the -1 fragment, -2 fragment untagged); Ni-NTA purification
[1] = target: T1, IPD082Hd-2, C-terminal fragment of homolog IPD082Hd (Pseudomonas corrugata)
T1 chain: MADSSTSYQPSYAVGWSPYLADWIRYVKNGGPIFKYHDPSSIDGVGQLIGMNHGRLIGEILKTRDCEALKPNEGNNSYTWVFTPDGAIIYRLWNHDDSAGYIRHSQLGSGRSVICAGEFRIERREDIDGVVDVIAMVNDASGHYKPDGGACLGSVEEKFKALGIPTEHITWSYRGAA
From the text: (§1) The IPD082Aa gene (SEQ ID NO: 1) was amplified by PCR using genomic DNA isolated from strain SSP446D7 using forward primer […] (SEQ ID NO: 59) and reverse primer […] (SEQ ID NO: 60). The resulting PCR product was DNA sequence verified and subcloned into pET16B vector with an N-terminal His-10 tag, and into pET24a vector with C-terminal His-10 tag or without tag. The plasmid DNA, containing the IPD082Aa gene insert, was transformed into competent C41 E. coli cells for recombinant protein expression. E. coli cells were grown at 37° C. with carbenicillin or kanamycin selection to OD₆₀₀ equal to 0.7-0.8 and then 1 mM ITPG was added and further grown at 16° C. for 16 hours to induce protein expression. The E. coli expressed His-tagged proteins were purified by immobilized metal ion chromatography using Ni-NTA agarose (Qiagen, Germany) according to the manufacturer's protocols. Other IPD082 homologs were expressed in a similar manner except the gene sequences were synthesized.
(§2) The polynucleotides, SEQ ID NO: 33 and SEQ ID NO: 35 respectively, encoding the 38.2 kDa N-terminal fragment (IPD082Aa-1—SEQ ID NO: 34) and 20.5 kDa C-terminal fragment (IPD082Aa-2—SEQ ID NO: 36) of IPD082Aa, were also co-expressed (FIG. 11) in a pETDuet™-1 vector (EMD Millipore, a Life Science business of Merck KGaA, Frankfurter StraBe 250, 64293, Darmstadt, Germany). Similarly polynucleotides encoding the C-terminal fragments of the IPD082 homologs: IPD082Hb-2 (SEQ ID NO: 37); IPD082Ia-2 (SEQ ID NO: 39); IPD082Ic-2 (SEQ ID NO: 41); IPD082Ie-2 (SEQ ID NO: 43); IPD082Ib-2 (SEQ ID NO: 45); IPD082Hd-2 (SEQ ID NO: 47); and IPD082Hc-2 (SEQ ID NO: 49), were cloned as chimeric fusions with IPD082Aa-2 (SEQ ID NO: 35) in the pETDuet™-1 vector containing IPD082Aa-1 polynucleotide (SEQ ID NO: 33).

[2] = target: T2, IPD082Ic-2, C-terminal fragment of homolog IPD082Ic (Pseudomonas sp. S16-2)
T2 chain: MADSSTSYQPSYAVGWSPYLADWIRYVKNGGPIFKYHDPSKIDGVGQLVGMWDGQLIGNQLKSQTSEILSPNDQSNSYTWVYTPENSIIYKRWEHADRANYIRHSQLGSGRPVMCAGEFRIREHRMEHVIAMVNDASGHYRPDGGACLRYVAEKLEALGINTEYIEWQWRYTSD
From the text: as §1, §2

[3] = target: T3, IPD082Ie-2, C-terminal fragment of homolog IPD082Ie (Pseudomonas agarici)
T3 chain: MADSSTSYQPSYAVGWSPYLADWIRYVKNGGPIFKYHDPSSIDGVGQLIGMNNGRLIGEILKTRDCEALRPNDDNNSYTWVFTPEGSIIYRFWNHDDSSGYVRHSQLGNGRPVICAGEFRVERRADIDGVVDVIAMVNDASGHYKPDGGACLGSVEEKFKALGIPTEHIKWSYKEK
From the text: as §1, §2

[4] = target: T4, IPD082Ib-2, C-terminal fragment of homolog IPD082Ib (Pseudomonas sp VLB120)
T4 chain: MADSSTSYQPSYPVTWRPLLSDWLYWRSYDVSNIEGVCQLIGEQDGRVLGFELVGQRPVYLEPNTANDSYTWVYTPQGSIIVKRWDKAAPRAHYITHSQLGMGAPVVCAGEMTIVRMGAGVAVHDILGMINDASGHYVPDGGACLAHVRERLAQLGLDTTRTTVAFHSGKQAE
From the text: as §1, §2

[5] = target: T5, IPD082Ia-2, C-terminal fragment of homolog IPD082Ia (Pseudomonas monteilii)
T5 chain: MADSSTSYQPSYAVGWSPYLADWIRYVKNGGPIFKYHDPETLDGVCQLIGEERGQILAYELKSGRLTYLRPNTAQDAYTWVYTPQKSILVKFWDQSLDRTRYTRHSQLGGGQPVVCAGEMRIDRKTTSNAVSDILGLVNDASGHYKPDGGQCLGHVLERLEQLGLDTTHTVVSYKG
From the text: as §1, §2

[6] = target: T6, IPD082Hc-2, C-terminal fragment of homolog IPD082Hc (Pseudomonas corrugata)
T6 chain: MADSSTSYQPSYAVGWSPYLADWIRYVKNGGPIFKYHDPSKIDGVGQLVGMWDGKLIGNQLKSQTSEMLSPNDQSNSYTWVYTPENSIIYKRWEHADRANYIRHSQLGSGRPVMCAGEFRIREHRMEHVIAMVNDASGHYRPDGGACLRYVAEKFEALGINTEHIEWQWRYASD
From the text: as §1, §2

Measured: binding result

B1: IPD082Aa-1, N-terminal region of IPD082Aa (pETDuet-1 construct, N-6 His) (other)
chain: MQTTVSETLVSGSDPRLQVSMGNETANGRWDNPYAIQFTYSIAGRQFFYGQNLKTHYWFIQELLPGGKMGQETANGRWDNPYAVQFAFSVGGRQFFYGQNLETNYWFIQELLAGGKMGQETANGRWNNPYASQFAFSVGGRQFFYGQNLKTNYWFIQELLAGGKMGQETANGTLDGPFAVQFPFSVGGSQYFYGQNIKDRSWFIKELLAGGKVGKTTASGRWDNAYAVQFAYPAEQYGRQYFYGQNLDTNYWFVQELLPGGAMGEEIMNGRWGNPYATQFAYEQGGISYFYGQNQSSNYWFIQELLSDTEYTVRRLPLLDYSSSTSAAQQSAPGVCL
notes: Co-expressed in pETDuet-1 with untagged C-terminal fragments of IPD082 homologs; not shown: N-terminal 6xHis tag of the pETDuet-1 vector ('N-6 His for -1')
binds: all assays above
